Consider 1 molecule from US20130115166A1 (CEPHALON AUSTRALIA, published 2013).

In one experiment the target is T1, FLAG-tagged IL-23p19 (human, UniProt Q9NPF7 20-189).
T1 sequence: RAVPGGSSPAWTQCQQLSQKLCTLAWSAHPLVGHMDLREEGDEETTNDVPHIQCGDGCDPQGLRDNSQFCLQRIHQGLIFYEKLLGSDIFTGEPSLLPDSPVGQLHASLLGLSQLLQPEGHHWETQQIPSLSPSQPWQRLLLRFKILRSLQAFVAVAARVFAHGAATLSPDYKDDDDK
In words: ELISA, hybridoma supernatant on antigen captured by anti-FLAG M2. On the procedure: (§1) Anti-FLAG M2 antibody (Sigma-Aldrich) was coated onto ELISA plates overnight. These plates were then used to capture individually: FLAG-tagged IL-23p19, FLAG-tagged IL-12p40 and FLAG-tagged IL-23. Hybridoma supernatant from the clones was added and hybridomas that were positive for binding to IL-23 but not IL-12p40 or IL-23p19 were expanded.
(In an ELISA, binding on a coated surface is turned into a signal by an enzyme label.)

The next experiment deals with T2, FLAG-tagged IL-12p40 (human, UniProt P29460 23-328).
T2 sequence: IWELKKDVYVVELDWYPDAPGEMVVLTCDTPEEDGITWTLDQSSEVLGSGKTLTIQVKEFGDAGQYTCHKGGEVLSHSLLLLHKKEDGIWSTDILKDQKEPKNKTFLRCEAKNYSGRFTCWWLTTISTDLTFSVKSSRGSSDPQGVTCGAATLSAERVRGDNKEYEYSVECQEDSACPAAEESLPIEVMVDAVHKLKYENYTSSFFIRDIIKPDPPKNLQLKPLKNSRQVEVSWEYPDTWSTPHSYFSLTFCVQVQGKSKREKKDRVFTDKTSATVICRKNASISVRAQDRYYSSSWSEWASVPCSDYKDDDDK
The description is as above. On the procedure:
as §1

B1: E11E7 (antibody, V domains shown)
VH: QVQLKESGPGLVQPSQTLSLTCTVSGFSLISYNVHWVRQPRGKGLEWMGVIWTGGSTDYNSVLKSRLSISRDTSKSQVFLKMHSLQTEDIGTYYCARDKYGLFPGYFDYWGQGVMVTVSS
VL: DIVMTQSPFSLAVSEGEMVTINCKPSQSLLSSGNRKNYLAWYQQKPGQSPKLLIYYASTRQSGVPDRFIGSGSGTDFTLTISDVQAEDLADYYCLQHFNYPWTFGGGTKLELKR
notes: Rat monoclonal antibody from a hybridoma; also called rat antibody E11E7
Regarding B1, the binding result with FLAG-tagged IL-23p19 and in the experiment with FLAG-tagged IL-12p40 was “no binding” each time.
